Reference: PMC3391102 (The Journal of Biological Chemistry, 2012)

Target: Full-length NOD2 (purified recombinant, tags removed) (UniProt Q9HC29 1-1040)
Experiment: SPR

Full-length NOD2 (purified recombinant, tags removed), sequence (Q9HC29 whole entry): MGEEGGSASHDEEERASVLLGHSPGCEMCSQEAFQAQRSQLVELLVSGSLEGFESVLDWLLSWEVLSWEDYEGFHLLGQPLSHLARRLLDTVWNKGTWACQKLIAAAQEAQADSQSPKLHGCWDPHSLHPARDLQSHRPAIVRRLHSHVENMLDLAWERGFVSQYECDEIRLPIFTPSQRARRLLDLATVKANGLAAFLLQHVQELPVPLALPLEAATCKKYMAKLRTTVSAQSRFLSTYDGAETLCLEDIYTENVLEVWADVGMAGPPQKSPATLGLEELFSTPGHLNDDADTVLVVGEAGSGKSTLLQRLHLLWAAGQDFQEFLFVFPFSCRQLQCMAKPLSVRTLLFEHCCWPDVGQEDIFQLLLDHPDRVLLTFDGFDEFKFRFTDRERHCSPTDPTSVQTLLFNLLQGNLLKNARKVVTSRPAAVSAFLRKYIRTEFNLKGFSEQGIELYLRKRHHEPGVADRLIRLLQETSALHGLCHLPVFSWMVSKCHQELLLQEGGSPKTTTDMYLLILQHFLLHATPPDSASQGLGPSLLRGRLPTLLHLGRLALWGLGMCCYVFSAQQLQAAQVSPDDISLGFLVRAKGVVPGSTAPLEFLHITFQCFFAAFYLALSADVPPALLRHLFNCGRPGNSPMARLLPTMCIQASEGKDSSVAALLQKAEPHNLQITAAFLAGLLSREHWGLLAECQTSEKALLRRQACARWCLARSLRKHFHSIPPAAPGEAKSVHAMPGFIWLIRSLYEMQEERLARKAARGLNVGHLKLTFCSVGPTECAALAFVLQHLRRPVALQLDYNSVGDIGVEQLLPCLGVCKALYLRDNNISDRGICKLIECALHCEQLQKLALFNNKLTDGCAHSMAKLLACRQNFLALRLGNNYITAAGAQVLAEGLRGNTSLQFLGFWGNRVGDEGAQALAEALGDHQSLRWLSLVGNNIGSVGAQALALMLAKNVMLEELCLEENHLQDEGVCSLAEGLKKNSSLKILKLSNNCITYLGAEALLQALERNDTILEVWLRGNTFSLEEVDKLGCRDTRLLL

B1: NOD2 CARDs (residues Met28-Arg227) (domain or fragment)
chain: MCSQEAFQAQRSQLVELLVSGSLEGFESVLDWLLSWEVLSWEDYEGFHLLGQPLSHLARRLLDTVWNKGTWACQKLIAAAQEAQADSQSPKLHGCWDPHSLHPARDLQSHRPAIVRRLHSHVENMLDLAWERGFVSQYECDEIRLPIFTPSQRARRLLDLATVKANGLAAFLLQHVQELPVPLALPLEAATCKKYMAKLR
Kd: 12.4 ± 0.58 µM
